Assay results reported in patent US20240100180A1 (SOTIO BIOTECH A S, published 2024).
Substitutions are numbered along the chain they refer to. Each block holds one binder with its values, some of them ahead of it.

Assays:
[1] = target: T1, human CLDN18.2 (Claudin 18.2) expressed on cells (human); assay: % positive tumor cells divided by % positive healthy stomach cells, flow cytometry, mouse 1
T1 construct: also called huCLDN18.2; hCLDN18.2
Experimental: (§1) Two Balb/c mice were implanted subcutaneously with 1×10⁶ A549 cells expressing CLDN18.2 in 100 μl of 50% Matrigel and tumors growth was monitored over a few weeks until the tumor reached the desired size between 150-450 mm³. Healthy stomach tissue and tumor tissue was collected for FC analysis. The collected tissues were cut into small pieces and digested with the Miltenyi tumor dissociation kit (MACS Miltenyi Biotec, Germany). Tissue pieces were incubated with dissociation buffer (prepared according to the manufacturer instruction) in 6 well plates for 30 min in 37° C. under permanent gentle rocking motion. Samples were resuspended and strained through a 70 μm cell strainer (Corning, USA) followed by a wash with 20 ml FC buffer (PBS+2% FBS). Cell suspensions were centrifuged (5 min at 400 g for 4° C.) and the supernatants were discarded. If needed, cell suspensions were passed through a strainer and centrifuged repeatedly and pellets resuspended in 5 ml of red blood cell lysis buffer (Biolegend, USA), incubated on ice for 4 min. After incubation, 25 ml of PBS was added, and the suspensions were centrifuged again (5 min at 400 g for 4° C.). Pellets were resuspended in FC buffer (0.5-3 ml based on pellets). Equal number of cells were transferred into 96 well plates and further processed for FC analysis. […]

[2] = target: T2, human CLDN18.1 (Claudin 18.1) expressed on cells (human, UniProt P56856 1-261); assay: flow cytometry, L11 cells overexpressing huCLDN18.1 (FIG. 4)
T2 construct: whole, on cells; Isoform 1 (lung isoform) of CLDN18; also called huCLDN18.1; hCLDN18.1
T2 sequence (P56856 whole entry, canonical isoform): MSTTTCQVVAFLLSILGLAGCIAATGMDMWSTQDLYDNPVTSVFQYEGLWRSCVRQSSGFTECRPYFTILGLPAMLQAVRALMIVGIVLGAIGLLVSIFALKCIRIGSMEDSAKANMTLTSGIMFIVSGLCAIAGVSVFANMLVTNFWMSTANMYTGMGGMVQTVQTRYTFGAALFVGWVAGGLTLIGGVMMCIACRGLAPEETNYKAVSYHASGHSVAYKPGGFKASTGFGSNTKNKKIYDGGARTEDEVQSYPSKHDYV
Experimental: The cells were stained on ice for 30 min using the antibodies at 2 μg/ml and, upon washing in PBS/2% FCS, stained with anti-human IgG (Fc gamma-specific) PE goat antibody (eBioscience) as secondary antibody for 30 min on ice.

[3] = target: T1, human CLDN18.2 (Claudin 18.2) expressed …; assay: % positive tumor cells divided by % positive healthy stomach cells, flow cytometry, mouse 2
Experimental: as §1

[4] = target: T1, human CLDN18.2 (Claudin 18.2) expressed …; assay: % positive tumor cells divided by % positive healthy stomach cells, flow cytometry, average
Experimental: as §1

[5] = target: T1, human CLDN18.2 (Claudin 18.2) expressed …; assay: cell-based or functional assay

Ratio tumor/stomach [1]: 92.5 | binding result [2]: no binding (tested: 2 µg/ml) | Ratio tumor/stomach [3]: 50 | Ratio tumor/stomach [4]: 74.3
B1: cCl1-1 (antibody, V domains shown)
VH: QIQLVQSGPELKKPGESVKISCKASGYTFTDYAMHWVKQAPGKGLKWMGWINTYTGKPTYADDFKGRFVFSLEASASTANLQISNLKNEDTATYFCARAVFYGYTMDAWGQGTSVTVSS
VL: DIQMTQSPASLSASLGETISIACRASEDIYSNLAWYQQKSGKSPQLLIFSVKRLQDGVPSRFSGSGSGTQYSLKISGMQPEDEGDYFCLQGSNFPLTFGSGTKLEIK
notes: Chimeric antibody from rat hybridoma, detected with anti-human IgG

binding result [2]: no binding (tested: 2 µg/ml)
B2: cCl1-2 (antibody, V domains shown)
VH: B1 VH with A24T, A40G, L45M, T53A, F70L, F101Y, T116I
VL: B1 VL with A22E, A25T, L33F, Y36F, F49Y, K52N, N93K
notes: as for B1

binding result [2]: no binding (tested: 2 µg/ml)
B3: cCl1-3 (antibody, V domains shown)
VH: B1 VH with H35Y, A40V, K46R
VL: B1 VL with A25T, S50A, V51I, N93K
notes: as for B1

B4: hCL1a-LC-G2-PNU (antibody, human IgG1, kappa)
heavy: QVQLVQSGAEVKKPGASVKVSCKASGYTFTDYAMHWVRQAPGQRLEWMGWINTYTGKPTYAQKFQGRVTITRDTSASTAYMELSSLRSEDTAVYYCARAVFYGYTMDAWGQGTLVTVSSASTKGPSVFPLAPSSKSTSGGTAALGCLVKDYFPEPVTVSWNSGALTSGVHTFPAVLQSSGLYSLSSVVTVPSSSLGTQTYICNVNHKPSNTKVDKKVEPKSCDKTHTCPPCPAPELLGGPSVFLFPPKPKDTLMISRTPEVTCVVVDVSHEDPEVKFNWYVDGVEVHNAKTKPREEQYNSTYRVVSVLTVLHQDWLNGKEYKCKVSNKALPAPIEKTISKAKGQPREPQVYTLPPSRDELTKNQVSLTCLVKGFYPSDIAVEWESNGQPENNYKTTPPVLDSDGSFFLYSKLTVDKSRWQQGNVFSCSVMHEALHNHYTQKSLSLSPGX
light: DIQMTQSPSSLSASVGDRVTITCRASEDIYSNLAWYQQKPGKAPKLLIFSVKRLQDGVPSRFSGSGSGTDFTLTISSLQPEDFATYYCLQGSNFPLTFGQGTKVEIKRTVAAPSVFIFPPSDEQLKSGTASVVCLLNNFYPREAKVQWKVDNALQSGNSQESVTEQDSKDSTYSLSSTLTLSKADYEKHKVYACEVTHQGLSSPVTKSFNRGECGGGGSLPQTGG
modifications: PNU-159682 linked through ethylenediamine to the C-terminal Gly of the GGGGSLPQTGG tag
EC50 of in-vitro cytotoxicity, A549-CLDN18.2 cells (head of c2) [5]: 4.8 ng/mL

B5: hCL1j-LC-G2-PNU (antibody, human IgG1, kappa)
heavy: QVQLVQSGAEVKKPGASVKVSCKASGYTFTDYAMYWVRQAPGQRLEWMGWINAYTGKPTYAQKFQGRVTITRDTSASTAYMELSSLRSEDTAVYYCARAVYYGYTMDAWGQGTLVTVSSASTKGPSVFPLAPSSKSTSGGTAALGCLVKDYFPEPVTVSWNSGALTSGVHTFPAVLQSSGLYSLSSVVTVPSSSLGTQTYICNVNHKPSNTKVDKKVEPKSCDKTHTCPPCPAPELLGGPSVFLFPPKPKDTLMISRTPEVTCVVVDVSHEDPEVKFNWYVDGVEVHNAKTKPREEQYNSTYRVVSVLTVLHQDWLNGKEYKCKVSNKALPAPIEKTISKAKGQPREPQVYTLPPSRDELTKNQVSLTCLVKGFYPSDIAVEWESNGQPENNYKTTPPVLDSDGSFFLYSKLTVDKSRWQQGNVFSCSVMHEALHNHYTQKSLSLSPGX
light: B4 light with A25T, S50A, V51I, N93K
modifications: PNU-159682 linked through ethylenediamine to the C-terminal Gly of the GGGGSLPQTGG tag
EC50 of in-vitro cytotoxicity, A549-CLDN18.2 cells (head of c2) [5]: 5.3 ng/mL

B6: hCL1d-LC-G2-PNU (antibody, human IgG1, kappa)
heavy: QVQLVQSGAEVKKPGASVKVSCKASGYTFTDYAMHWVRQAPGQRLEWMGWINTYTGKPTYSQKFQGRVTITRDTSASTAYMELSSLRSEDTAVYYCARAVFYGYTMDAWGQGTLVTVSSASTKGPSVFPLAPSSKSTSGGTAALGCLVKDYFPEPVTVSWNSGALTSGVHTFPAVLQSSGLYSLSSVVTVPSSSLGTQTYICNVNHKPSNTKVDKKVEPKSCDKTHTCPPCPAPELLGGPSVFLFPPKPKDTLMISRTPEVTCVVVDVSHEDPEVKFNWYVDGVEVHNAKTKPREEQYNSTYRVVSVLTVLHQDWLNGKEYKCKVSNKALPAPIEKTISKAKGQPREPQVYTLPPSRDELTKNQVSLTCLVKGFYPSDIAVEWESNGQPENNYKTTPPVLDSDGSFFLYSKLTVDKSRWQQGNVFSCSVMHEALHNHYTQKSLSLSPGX
light: B4 light with A25T, L33F, F49Y, K52N, N93K
modifications: PNU-159682 linked through ethylenediamine to the C-terminal Gly of the GGGGSLPQTGG tag
EC50 of in-vitro cytotoxicity, A549-CLDN18.2 cells (head of c2) [5]: 11.6 ng/mL

B7: hCL1b-LC-G2-PNU (antibody, human IgG1, kappa)
heavy: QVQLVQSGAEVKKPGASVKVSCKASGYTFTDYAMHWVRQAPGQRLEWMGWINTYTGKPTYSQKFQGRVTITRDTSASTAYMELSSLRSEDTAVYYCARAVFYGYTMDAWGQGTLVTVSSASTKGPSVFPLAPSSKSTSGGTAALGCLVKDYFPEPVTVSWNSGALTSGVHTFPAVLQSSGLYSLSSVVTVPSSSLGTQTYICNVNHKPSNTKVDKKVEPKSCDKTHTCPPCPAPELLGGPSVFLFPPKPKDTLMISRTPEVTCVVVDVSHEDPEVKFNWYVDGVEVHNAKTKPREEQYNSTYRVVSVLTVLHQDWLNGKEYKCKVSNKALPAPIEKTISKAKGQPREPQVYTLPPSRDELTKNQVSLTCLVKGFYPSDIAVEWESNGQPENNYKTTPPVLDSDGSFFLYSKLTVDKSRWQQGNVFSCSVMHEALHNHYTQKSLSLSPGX
light: B4 light
modifications: PNU-159682 linked through ethylenediamine to the C-terminal Gly of the GGGGSLPQTGG tag
EC50 of in-vitro cytotoxicity, A549-CLDN18.2 cells (head of c2) [5]: 6.4 ng/mL

B8: hCL1e-LC-G2-PNU (antibody, human IgG1, kappa)
heavy: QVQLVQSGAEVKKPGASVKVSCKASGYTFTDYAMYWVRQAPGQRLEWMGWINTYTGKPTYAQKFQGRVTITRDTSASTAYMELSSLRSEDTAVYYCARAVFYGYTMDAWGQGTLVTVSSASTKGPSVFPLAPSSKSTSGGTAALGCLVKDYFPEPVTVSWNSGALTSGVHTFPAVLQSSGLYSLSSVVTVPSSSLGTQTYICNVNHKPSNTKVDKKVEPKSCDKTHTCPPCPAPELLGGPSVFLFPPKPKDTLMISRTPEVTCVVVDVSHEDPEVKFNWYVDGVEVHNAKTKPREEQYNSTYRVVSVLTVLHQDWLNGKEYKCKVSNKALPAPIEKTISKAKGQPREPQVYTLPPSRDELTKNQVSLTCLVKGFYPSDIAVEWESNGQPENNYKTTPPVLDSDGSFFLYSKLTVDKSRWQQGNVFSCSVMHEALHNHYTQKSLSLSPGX
light: B4 light
modifications: PNU-159682 linked through ethylenediamine to the C-terminal Gly of the GGGGSLPQTGG tag
EC50 of in-vitro cytotoxicity, A549-CLDN18.2 cells (head of c2) [5]: 4.3 ng/mL

B9: hCL1c-LC-G2-PNU (antibody, human IgG1, kappa)
heavy: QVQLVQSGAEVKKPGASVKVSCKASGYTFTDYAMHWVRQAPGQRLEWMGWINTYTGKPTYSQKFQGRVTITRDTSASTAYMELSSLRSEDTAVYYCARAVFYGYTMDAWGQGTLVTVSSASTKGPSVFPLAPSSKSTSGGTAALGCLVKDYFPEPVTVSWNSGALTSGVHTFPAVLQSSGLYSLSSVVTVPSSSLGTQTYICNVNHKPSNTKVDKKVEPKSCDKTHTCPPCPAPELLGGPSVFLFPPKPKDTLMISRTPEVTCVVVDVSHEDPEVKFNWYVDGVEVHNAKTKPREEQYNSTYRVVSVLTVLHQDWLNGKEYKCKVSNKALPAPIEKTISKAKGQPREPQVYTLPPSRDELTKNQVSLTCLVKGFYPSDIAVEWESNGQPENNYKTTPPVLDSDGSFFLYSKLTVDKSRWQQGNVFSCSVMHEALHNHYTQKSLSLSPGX
light: B4 light with A25T, S50A, V51I, N93K
modifications: PNU-159682 linked through ethylenediamine to the C-terminal Gly of the GGGGSLPQTGG tag
EC50 of in-vitro cytotoxicity, A549-CLDN18.2 cells (head of c2) [5]: 30 ng/mL

B10: hCL1g-LC-G2-PNU (antibody, human IgG1, kappa)
heavy: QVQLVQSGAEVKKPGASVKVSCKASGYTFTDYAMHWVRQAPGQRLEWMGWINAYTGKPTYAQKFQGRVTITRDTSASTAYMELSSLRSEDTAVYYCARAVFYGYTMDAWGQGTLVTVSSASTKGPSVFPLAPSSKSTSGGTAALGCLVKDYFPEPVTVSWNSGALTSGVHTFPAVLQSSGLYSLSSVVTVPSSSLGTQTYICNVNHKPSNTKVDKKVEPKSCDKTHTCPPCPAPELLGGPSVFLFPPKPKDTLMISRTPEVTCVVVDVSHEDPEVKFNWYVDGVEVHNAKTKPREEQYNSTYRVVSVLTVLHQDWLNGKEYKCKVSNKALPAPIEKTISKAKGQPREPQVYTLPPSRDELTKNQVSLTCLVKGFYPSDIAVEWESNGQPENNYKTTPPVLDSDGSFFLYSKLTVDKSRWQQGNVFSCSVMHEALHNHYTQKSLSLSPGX
light: B4 light with A25T, L33F, F49Y, K52N, N93K
modifications: PNU-159682 linked through ethylenediamine to the C-terminal Gly of the GGGGSLPQTGG tag
EC50 of in-vitro cytotoxicity, A549-CLDN18.2 cells (head of c2) [5]: 70.7 ng/mL

B11: hCL1i-LC-G2-PNU (antibody, human IgG1, kappa)
heavy: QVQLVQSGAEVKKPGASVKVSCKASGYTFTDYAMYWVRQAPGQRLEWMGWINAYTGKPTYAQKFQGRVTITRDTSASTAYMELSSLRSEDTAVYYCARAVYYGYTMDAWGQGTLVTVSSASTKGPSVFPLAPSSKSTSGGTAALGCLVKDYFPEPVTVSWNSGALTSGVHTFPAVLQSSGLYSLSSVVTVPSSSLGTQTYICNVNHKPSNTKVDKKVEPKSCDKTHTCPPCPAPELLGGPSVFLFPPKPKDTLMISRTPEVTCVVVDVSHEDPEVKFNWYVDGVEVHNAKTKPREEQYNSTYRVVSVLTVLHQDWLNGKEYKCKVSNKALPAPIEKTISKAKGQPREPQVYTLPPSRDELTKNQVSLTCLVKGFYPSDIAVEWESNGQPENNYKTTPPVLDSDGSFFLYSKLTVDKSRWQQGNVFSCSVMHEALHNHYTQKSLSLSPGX
light: B4 light
modifications: PNU-159682 linked through ethylenediamine to the C-terminal Gly of the GGGGSLPQTGG tag
EC50 of in-vitro cytotoxicity, A549-CLDN18.2 cells (head of c2) [5]: 3.8 ng/mL

B12: hCL1h-LC-G2-PNU (antibody, human IgG1, kappa)
heavy: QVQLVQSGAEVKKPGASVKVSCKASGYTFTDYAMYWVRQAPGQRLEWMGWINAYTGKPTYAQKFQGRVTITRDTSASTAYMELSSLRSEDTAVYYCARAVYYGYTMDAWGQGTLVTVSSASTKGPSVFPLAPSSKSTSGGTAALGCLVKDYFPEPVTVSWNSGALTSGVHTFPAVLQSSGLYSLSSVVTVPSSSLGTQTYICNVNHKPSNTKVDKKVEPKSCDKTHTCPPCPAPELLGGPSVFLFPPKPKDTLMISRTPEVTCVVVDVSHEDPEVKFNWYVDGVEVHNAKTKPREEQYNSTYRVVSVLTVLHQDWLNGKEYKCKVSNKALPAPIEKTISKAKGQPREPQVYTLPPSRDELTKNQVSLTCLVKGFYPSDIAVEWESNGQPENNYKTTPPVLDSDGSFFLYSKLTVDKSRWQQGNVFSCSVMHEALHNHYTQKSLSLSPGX
light: B4 light with F49Y
modifications: PNU-159682 linked through ethylenediamine to the C-terminal Gly of the GGGGSLPQTGG tag
EC50 of in-vitro cytotoxicity, A549-CLDN18.2 cells (head of c2) [5]: 3.3 ng/mL

B13: hCL1f-LC-G2-PNU (antibody, human IgG1, kappa)
heavy: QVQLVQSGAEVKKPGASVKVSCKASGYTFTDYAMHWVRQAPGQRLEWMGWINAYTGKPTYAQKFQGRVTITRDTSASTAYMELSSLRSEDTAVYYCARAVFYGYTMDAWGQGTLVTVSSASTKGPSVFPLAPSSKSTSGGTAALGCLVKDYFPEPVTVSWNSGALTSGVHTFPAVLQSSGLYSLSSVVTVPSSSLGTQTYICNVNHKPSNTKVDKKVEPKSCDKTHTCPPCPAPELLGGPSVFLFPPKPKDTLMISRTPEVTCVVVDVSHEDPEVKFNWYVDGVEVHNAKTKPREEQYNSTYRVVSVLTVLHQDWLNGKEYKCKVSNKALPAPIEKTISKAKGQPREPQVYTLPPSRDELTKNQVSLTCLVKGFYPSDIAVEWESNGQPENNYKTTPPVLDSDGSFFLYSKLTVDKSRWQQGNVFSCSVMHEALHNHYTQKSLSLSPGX
light: B4 light with F49Y
modifications: PNU-159682 linked through ethylenediamine to the C-terminal Gly of the GGGGSLPQTGG tag
EC50 of in-vitro cytotoxicity, A549-CLDN18.2 cells (head of c2) [5]: 14 ng/mL
